Assay results reported in patent publication US6348572B1, “Ligands for phosphatase binding assay” (Merck Frosst Canada & Co., priority 1996, dated 2002).
Where a chain is given by its changes, count along the chain named. Square brackets hold non-standard residues; d marks the D form. Ends that are not written are not given here. Peptide text beside a SMILES is read from it. * marks the point of attachment. F2Pmp = N[C@@H](Cc1ccc(C(F)(F)P(=O)(O)O)cc1)C(=O)O; Bz = O=C(c1ccccc1)*

Key:
[1] = target: Human recombinant PTP1B, containing amino acids 1-320, Cys215Ser mutant, fused to GST enzyme (glutathione S-transferase) (human) (UniProt P18031); test: SPA raw counts of bound tritiated BzN-EJJ-CONH2 on mutant GST-PTP1B with cold tripeptide, first duplicate; number split over r10 and r11
[2] = target: Human recombinant PTP1B, containing amino acids 1-320, fused to GST enzyme (glutathione S-transferase), wild type (active site cysteine 215) (human) (UniProt P18031); test: GST-PTP1B SPA binding assay, competition with tritiated BzN-EJJ-CONH2, non-mutated (Cys215) enzyme
[3] = target: Human recombinant PTP1B, containing amino acids 1-320, Cys215Ser mutant, fused to GST enzyme (glutathione S-transferase) (human) (UniProt P18031); test: GST-PTP1B SPA binding assay, competition with tritiated BzN-EJJ-CONH2, mutated (Ser215) enzyme
[4] = target: Human recombinant PTP1B, containing amino acids 1-320, Cys215Ser mutant, fused to GST enzyme (glutathione S-transferase) (human) (UniProt P18031); test: SPA raw counts of bound tritiated BzN-EJJ-CONH2 on mutant GST-PTP1B with cold tripeptide, second duplicate; number split over r12 and r13
[5] = target: T1, GST-PTP1B Non-Mutated (Cys215) (Homo sapiens, UniProt P18031); test: GST-PTP1B SPA binding assay, non-mutated (Cys215) enzyme; competition with tritiated BzN-EJJ-CONH2; settings: for IC50: non-mutated (Cys215) GST-PTP1B
T1 construct: made in house; host or cells: E. coli
T1 sequence (P18031 1-320): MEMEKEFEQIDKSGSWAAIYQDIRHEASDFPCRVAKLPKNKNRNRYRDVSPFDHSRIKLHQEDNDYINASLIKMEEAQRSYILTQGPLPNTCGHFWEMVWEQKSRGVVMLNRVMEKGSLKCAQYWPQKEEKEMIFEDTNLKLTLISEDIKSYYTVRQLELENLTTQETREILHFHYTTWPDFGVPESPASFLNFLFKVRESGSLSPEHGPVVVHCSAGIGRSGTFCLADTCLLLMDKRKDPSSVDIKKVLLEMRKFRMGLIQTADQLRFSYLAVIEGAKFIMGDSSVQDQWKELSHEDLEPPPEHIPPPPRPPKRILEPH
Procedure: (§1) Enzyme: Human recombinant PTPLB, containing ammo acids 1-320, (Seq. ID No. 1) fused to GST enzyme (glutathione S-transferase) purified by affinity chromatography. Wild type (Seq. ID No. 1) contains active site cysteine(215), whereas mutant (Seq. ID No. 7) contains active site serine(215).
(§2) Tritiated peptide: Bz-NEJJ-CONH2, Mwt. 808, empirical formula, C32H32T2O12P2F4
(§3) To each well is added the following solutions @ 25° C. in the following chronological order:
(§4) 1. 110 μl of assay buffer.
(§5) 2. 10 μl. of 50 nM tritiated BzN-EJJ-CONH2 in assay buffer (1X) @ 25° C.
(§6) 3. 10 μl. of testing compound in DMSO at 10 different concentrations in serial dilution (final DMSO, about 5% v/v) in duplicate @ 25° C.
(§7) 4. 10 μl. of 3.75 μg/ml purified human recombinant GST-PTP1B in enzyme dilution buffer.
(§8) 5. The plate is shaken for 2 minutes.
(§9) 6. 10 μl. of 0.3 μg/ml anti-glutathione S-transferase (anti-GST) rabbit IgG (Molecular Probes) diluted in antibody dilution buffer @ 25° C.
(§10) 7. The plate is shaken for 2 minutes.
(§11) 8. 50 μl. of protein A-PVT SPA beads (Amersham) @ 25° C.
(§12) 9. The plate is shaken for 5 minutes. The binding signal is quantified on a Microbeta 96-well plate counter.
(§13) 10. The non-specific signal is defined as the enzyme-ligand binding in the absence of anti-GST antibody.
11. 100% binding activity is defined as the enzyme-ligand binding in the presence of anti-GST antibody, but in the absence of the testing ligands with the non-specific binding subtracted.
12. Percentage of inhibition is calculated accordingly.
13. IC50 value is approximated from the non-linear regression fit with the 4-parameter/multiple sites equation (described in: “Robust Statistics”, New York, Wiley, by P. J. Huber (1981) and reported in nM units.

[6] = target: T2, GST-PTP1B Mutated enzyme (Ser215) (Homo sapiens, UniProt P18031, C215S); test: GST-PTP1B SPA binding assay, mutated (Ser215) enzyme; competition with tritiated BzN-EJJ-CONH2
T2 construct: made in house; host or cells: bacteria (DH5α named for the transformation; E. coli stated for the wild-type fusion)
T2 sequence (P18031 1-320 C215S): T1 sequence (P18031 1-320) with C215S
Procedure: as §1, §2, §3, §4, §5, §6, §7, §8, §9, §10, §11, §12, §13
11. […]
12. Percentage of inhibition is calculated accordingly. […]

[7] = target: Human recombinant PTP1B, containing amino acids 1-320, Cys215Ser mutant, fused to GST enzyme (glutathione S-transferase) (human) (UniProt P18031); test: SPA raw counts, mutant GST-PTP1B with tritiated BzN-EJJ-CONH2, anti-GST antibody present, no cold tripeptide, first duplicate
[8] = target: Human recombinant PTP1B, containing amino acids 1-320, Cys215Ser mutant, fused to GST enzyme (glutathione S-transferase) (human) (UniProt P18031); test: SPA raw counts, mutant GST-PTP1B with tritiated BzN-EJJ-CONH2, no anti-GST antibody, no cold tripeptide, first duplicate
[9] = target: Human recombinant PTP1B, containing amino acids 1-320, Cys215Ser mutant, fused to GST enzyme (glutathione S-transferase) (human) (UniProt P18031); test: SPA raw counts, mutant GST-PTP1B with tritiated BzN-EJJ-CONH2, no anti-GST antibody, no cold tripeptide, second duplicate
[10] = target: Human recombinant PTP1B, containing amino acids 1-320, Cys215Ser mutant, fused to GST enzyme (glutathione S-transferase) (human) (UniProt P18031); test: SPA raw counts, mutant GST-PTP1B with tritiated BzN-EJJ-CONH2, anti-GST antibody present, no cold tripeptide, second duplicate
PTP1B = target: T3, PTP1B (Homo sapiens, UniProt P18031); test: inhibition of PTP1B (stated in text, method not given); type: biochemical; settings: read-out: active inhibitor of PTP1B (potency, type not given)
T3 sequence (P18031 1-435): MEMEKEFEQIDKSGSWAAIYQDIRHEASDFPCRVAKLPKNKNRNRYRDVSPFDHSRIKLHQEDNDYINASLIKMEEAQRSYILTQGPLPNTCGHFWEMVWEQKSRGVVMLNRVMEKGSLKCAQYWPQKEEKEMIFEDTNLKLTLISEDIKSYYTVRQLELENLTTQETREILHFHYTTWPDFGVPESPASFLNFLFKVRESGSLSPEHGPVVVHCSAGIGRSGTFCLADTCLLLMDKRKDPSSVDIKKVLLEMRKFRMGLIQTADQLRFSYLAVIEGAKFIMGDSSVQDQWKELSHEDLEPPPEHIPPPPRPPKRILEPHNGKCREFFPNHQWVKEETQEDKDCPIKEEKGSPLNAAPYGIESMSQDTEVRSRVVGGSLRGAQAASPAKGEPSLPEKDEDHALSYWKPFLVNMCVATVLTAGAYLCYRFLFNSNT

[11] = target: T4, Human recombinant PTP1B, containing amino acids 1-320, fused to GST enzyme (glutathione S-transferase), wild … (human, UniProt P18031 1-320); test: GST-PTP1B SPA binding assay, competition with tritiated BzN-EJJ-CONH2, non-mutated (Cys215) enzyme
T4 construct: ID No. 1, which is the DNA strand; GST is N-terminal (pGEX-2T); also called GST-PTP1B; GST-PTP-1B fusion protein; not shown: N-terminal glutathione S-transferase carrier and the pGEX-2T linker residues
T4 sequence: T1 sequence (P18031 1-320)
Procedure: 1. 110 μl of assay buffer. 2. 10 μl. of 50 nM tritiated BzN-EJJ-CONH_2 in assay buffer (1X) @ 25° C. 3. 10 μl. of testing compound in DMSO at 10 different concentrations in serial dilution (final DMSO, about 5% v/v) in duplicate @ 25° C. 4. 10 μl. of 3.75 μg/ml purified human recombinant GST-PTP1B in enzyme dilution buffer. 5. The plate is shaken for 2 minutes. 6. 10 μl. of 0.3 μg/ml anti-glutathione S-transferase (anti-GST) rabbit IgG (Molecular Probes) diluted in antibody dilution buffer @ 25° C. 7. The plate is shaken for 2 minutes. 8. 50 μl. of protein A-PVT SPA beads (Amersham) @ 25° C. 9. The plate is shaken for 5 minutes. The binding signal is quantified on a Microbeta 96-well plate counter. 10. The non-specific signal is defined as the enzyme-ligand binding in the absence of anti-GST antibody. 11. 100% binding activity is defined as the enzyme-ligand binding in the presence of anti-GST antibody, but in the absence of the testing ligands with the non-specific binding subtracted. 12. Percentage of inhibition is calculated accordingly.

[12] = target: T5, Human recombinant PTP1B, containing amino acids 1-320, Cys215Ser mutant, fused to GST enzyme (glutathione … (human, UniProt P18031 1-320)); test: GST-PTP1B SPA binding assay, competition with tritiated BzN-EJJ-CONH2, mutated (Ser215) enzyme
T5 construct: ID No. 7 (cDNA); the protein in the assay has Ser at 215; also called GST-PTP-1B Cys215Ser mutant; mutant GST-PTP1B; not shown: N-terminal glutathione S-transferase carrier and the pGEX-2T linker residues
T5 sequence: T1 sequence (P18031 1-320) with C215S

N-Benzoyl-L-glutamyl-[4-phosphono(difluoromethyl)]-L-phenylalanyl-[4-phosphono(difluoromethyl)]-L-phenylalanineamide (peptide)
Counts (dpm) at 125 nM tripeptide [1]: 873 dpm | Counts (dpm) at 250 nM tripeptide [1]: 288 dpm | IC50 [2]: 14 nM | IC50 [3]: 8 nM | Counts (dpm) at 62.5 nM tripeptide [4]: 1110 dpm | Counts (dpm) at 125 nM tripeptide [4]: 588 dpm | Counts (dpm) at 250 nM tripeptide [4]: 273 dpm

COc1cc(OC)c(OC)cc1CC/N=C\Cc1ncc[nH]1 [Imine, reference compound]
inhibition at 2 µM ([5]; at 2 μM, non-mutated (Cys215)): 67% | inhibition at 2 µM ([6]; at 2 μM, mutated (Ser215)): 10%

N-(3,5-Ditritio)benzoyl-L-glutamyl-[4-phosphono(difluoromethyl)]-L-phenylalanyl-[4-phosphono(difluoromethyl)]-L-phenylalanineamide (peptide)
Counts (dpm), antibody (+ control), no competitor [7]: 5650 dpm | Counts (dpm), no antibody (- control), non-specific signal [8]: 252 dpm | Counts (dpm), no antibody (- control), non-specific signal [9]: 304 dpm | Counts (dpm), antibody (+ control), no competitor [10]: 6380 dpm

NC(=O)[C@H](Cc1ccc(C(F)(F)P(=O)(O)O)cc1)NC(=O)[C@H](Cc1ccc(C(F)(F)P(=O)(O)O)cc1)NC(=O)[C@H](CCC(=O)O)NC(=O)c1ccccc1 [Example 1, N-Benzoyl-L-glutamyl-[4-phosphono(difluoromethyl)]-L-phenylalanyl-[4-phosphono(difluoromethyl)]-L-phenlalanine Amide] (Bz-Glu-[F2Pmp]-[F2Pmp]-NH2)
IC50 [5]: 14 nM | IC50 (PTP1B): 5 nM

Cc1cc(Cl)c2c(c1O)C(=O)C=CC2=O [Quinone, reference compound]
IC50 [5]: 4000 nM | IC50 ([6]; mutated (Ser215) GST-PTP1B): > 100000 nM

B1: DADE(F2PMP)L hexapeptide (T. Burke et al. Biochem. Biophys. Res. Comm. 204, 129, (1994)) (peptide)
peptide: DADE[F2Pmp]L
notes: Terminal caps, if any, stand only in a structure drawing that is not in the text; also called hexamer peptide containing the phosphotyrosyl mimetic F2Pmp
IC50 [11]: 400 nM | IC50 [12]: 100 nM
